Tests used:
[1] = molecular target: NRSF (endogenous, JTC-19 rat lung fibroblasts) (rat) (UniProt O54963); assay: cell-based or functional assay
MYC-tagged NRSF protein = assay: co-immunoprecipitation (anti-KT3) of HEK cell protein incubated with 0-1000 nM NADH, anti-MYC Western blot; the varied concentration is that of NADH, not of a protein
Sequence of MYC-tagged NRSF protein (Q13127 whole entry): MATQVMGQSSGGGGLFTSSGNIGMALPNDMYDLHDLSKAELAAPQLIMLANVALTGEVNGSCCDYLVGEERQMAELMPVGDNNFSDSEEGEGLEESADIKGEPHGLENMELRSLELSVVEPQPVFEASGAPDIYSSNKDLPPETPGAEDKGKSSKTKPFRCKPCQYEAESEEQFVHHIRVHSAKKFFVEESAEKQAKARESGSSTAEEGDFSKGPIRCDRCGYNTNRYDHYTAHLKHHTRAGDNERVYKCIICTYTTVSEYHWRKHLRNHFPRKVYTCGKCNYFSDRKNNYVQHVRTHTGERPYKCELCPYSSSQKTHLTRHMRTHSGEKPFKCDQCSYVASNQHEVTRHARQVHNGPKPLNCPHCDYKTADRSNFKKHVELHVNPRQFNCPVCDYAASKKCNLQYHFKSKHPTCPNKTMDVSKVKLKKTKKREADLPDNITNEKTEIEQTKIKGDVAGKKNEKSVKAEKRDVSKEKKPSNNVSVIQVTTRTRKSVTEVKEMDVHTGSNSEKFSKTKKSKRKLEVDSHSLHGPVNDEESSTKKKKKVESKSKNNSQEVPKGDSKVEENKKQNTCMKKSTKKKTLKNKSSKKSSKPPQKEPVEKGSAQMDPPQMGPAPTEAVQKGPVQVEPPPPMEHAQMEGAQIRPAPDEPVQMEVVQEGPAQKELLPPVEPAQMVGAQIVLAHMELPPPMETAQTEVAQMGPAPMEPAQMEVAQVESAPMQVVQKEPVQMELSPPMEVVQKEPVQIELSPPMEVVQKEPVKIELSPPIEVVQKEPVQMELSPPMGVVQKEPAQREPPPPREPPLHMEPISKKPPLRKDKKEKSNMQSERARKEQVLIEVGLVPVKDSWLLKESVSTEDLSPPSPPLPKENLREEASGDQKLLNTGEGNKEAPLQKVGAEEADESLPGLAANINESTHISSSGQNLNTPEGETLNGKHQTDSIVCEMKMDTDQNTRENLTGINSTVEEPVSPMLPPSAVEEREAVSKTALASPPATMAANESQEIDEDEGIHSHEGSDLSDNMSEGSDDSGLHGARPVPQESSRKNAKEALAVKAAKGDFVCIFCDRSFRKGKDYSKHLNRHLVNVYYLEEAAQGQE

Sequence of NRSF (endogenous, JTC-19 rat lung fibroblasts) (rat) (O54963 whole entry): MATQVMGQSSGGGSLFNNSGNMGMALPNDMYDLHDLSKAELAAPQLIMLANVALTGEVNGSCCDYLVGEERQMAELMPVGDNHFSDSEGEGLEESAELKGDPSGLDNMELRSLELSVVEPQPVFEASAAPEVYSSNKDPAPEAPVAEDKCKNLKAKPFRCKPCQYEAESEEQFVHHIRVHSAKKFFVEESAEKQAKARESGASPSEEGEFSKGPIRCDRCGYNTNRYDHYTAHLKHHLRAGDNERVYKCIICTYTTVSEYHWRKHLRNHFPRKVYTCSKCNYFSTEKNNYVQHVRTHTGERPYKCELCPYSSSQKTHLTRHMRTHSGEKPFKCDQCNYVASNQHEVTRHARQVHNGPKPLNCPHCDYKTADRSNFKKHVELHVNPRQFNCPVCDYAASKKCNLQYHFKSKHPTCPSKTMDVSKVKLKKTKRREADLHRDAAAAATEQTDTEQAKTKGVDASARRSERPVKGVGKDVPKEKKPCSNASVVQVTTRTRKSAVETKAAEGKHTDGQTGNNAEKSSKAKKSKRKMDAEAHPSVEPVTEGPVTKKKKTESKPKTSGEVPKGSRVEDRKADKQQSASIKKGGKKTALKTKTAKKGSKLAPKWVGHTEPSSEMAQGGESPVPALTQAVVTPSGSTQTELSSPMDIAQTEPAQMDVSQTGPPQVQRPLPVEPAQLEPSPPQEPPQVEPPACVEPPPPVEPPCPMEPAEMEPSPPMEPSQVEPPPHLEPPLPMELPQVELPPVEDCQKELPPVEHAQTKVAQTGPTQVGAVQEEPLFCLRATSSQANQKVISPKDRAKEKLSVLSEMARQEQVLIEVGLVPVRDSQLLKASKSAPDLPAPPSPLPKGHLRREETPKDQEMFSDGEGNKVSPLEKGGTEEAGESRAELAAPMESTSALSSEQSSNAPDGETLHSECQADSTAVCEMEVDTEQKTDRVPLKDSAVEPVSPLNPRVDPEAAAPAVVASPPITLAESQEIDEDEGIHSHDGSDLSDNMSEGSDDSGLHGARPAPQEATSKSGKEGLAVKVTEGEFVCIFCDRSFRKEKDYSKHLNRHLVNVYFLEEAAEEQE
Sequence of KT3-tagged CtBP2 (P56546 whole entry): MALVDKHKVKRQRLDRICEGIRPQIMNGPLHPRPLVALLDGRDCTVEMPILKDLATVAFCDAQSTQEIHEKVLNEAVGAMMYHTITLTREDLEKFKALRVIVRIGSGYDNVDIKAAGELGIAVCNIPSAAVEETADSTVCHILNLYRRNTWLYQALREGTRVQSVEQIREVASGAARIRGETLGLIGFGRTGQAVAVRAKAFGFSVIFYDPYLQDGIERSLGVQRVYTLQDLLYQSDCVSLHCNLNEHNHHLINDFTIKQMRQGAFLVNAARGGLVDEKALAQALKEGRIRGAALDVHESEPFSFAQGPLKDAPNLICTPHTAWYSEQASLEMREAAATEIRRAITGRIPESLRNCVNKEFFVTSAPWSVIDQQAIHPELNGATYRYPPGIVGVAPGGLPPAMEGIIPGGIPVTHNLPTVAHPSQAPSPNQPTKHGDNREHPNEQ

| Substance | amount of CtBP recruited to CHRM4, the NRSF target gene (ChIP, JTC-19 cells grown with 2-DG or glucose) [1] [fold] | NADH concentration at half maximal binding of CtBP to NRSF (MYC-tagged NRSF protein) [nM] |
| --- | --- | --- |
| CtBP (endogenous, JTC-19 rat lung fibroblasts) (from UniProt F7FG31 1-441) | 5 |  |
| KT3-tagged CtBP2 |  | 70 |
